Results on 27 molecules are retold here after article PMC10786891, “Massively parallel profiling of RNA-targeting CRISPR-Cas13d”.

To fix the notation:
B1: target 2 MT 5'PFS UAC 3'PFS CAA (mixed)
RNA 1: CACCCGUGCAAAAUUGCAGGGGUCUAAAACCUUCUCCAAAUUGUUUCAUCCU
RNA 2: GGGAAUGGAUCCACAUCUACGAAUUCUACAGGAUGAAACAAUUUGGAGAAGCAAAGAUCGGAAGAGCACACGU
B2: target 2 MT 5'PFS AAA 3'PFS ACG (mixed)
RNA 1: CACCCGUGCAAAAUUGCAGGGGUCUAAAACCUUCUCCAAAUUGUUUCAUCCU
RNA 2: GGGAAUGGAUCCACAUCUACGAAUUCAAAAGGAUGAAACAAUUUGGAGAAGACGAGAUCGGAAGAGCACACGU
B3: target 2 MT 5'PFS GUU 3'PFS CGG (mixed)
RNA 1: CACCCGUGCAAAAUUGCAGGGGUCUAAAACCUUCUCCAAAUUGUUUCAUCCU
RNA 2: GGGAAUGGAUCCACAUCUACGAAUUCGUUAGGAUGAAACAAUUUGGAGAAGCGGAGAUCGGAAGAGCACACGU
B4: target 2 MT 5'PFS AAC 3'PFS CUG (mixed)
RNA 1: CACCCGUGCAAAAUUGCAGGGGUCUAAAACCUUCUCCAAAUUGUUUCAUCCU
RNA 2: GGGAAUGGAUCCACAUCUACGAAUUCAACAGGAUGAAACAAUUUGGAGAAGCUGAGAUCGGAAGAGCACACGU
B5: target 2 MT 5'PFS GUU 3'PFS CGU (mixed)
RNA 1: CACCCGUGCAAAAUUGCAGGGGUCUAAAACCUUCUCCAAAUUGUUUCAUCCU
RNA 2: GGGAAUGGAUCCACAUCUACGAAUUCGUUAGGAUGAAACAAUUUGGAGAAGCGUAGAUCGGAAGAGCACACGU
B6: target 2 MT 5'PFS UAC 3'PFS CAU (mixed)
RNA 1: CACCCGUGCAAAAUUGCAGGGGUCUAAAACCUUCUCCAAAUUGUUUCAUCCU
RNA 2: GGGAAUGGAUCCACAUCUACGAAUUCUACAGGAUGAAACAAUUUGGAGAAGCAUAGAUCGGAAGAGCACACGU
B7: target 2 MT 5'PFS UCG 3'PFS CGC (mixed)
RNA 1: CACCCGUGCAAAAUUGCAGGGGUCUAAAACCUUCUCCAAAUUGUUUCAUCCU
RNA 2: GGGAAUGGAUCCACAUCUACGAAUUCUCGAGGAUGAAACAAUUUGGAGAAGCGCAGAUCGGAAGAGCACACGU
B8: target 2 MT 5'PFS UAC 3'PFS ACA (mixed)
RNA 1: CACCCGUGCAAAAUUGCAGGGGUCUAAAACCUUCUCCAAAUUGUUUCAUCCU
RNA 2: GGGAAUGGAUCCACAUCUACGAAUUCUACAGGAUGAAACAAUUUGGAGAAGACAAGAUCGGAAGAGCACACGU
B9: target 2 MT 5'PFS GUU 3'PFS CGA (mixed)
RNA 1: CACCCGUGCAAAAUUGCAGGGGUCUAAAACCUUCUCCAAAUUGUUUCAUCCU
RNA 2: GGGAAUGGAUCCACAUCUACGAAUUCGUUAGGAUGAAACAAUUUGGAGAAGCGAAGAUCGGAAGAGCACACGU
B10: target 2 MT 5'PFS UCA 3'PFS UCC (mixed)
RNA 1: CACCCGUGCAAAAUUGCAGGGGUCUAAAACCUUCUCCAAAUUGUUUCAUCCU
RNA 2: GGGAAUGGAUCCACAUCUACGAAUUCUCAAGGAUGAAACAAUUUGGAGAAGUCCAGAUCGGAAGAGCACACGU
B11: target 2 MT 5'PFS UAC 3'PFS ACC (mixed)
RNA 1: CACCCGUGCAAAAUUGCAGGGGUCUAAAACCUUCUCCAAAUUGUUUCAUCCU
RNA 2: GGGAAUGGAUCCACAUCUACGAAUUCUACAGGAUGAAACAAUUUGGAGAAGACCAGAUCGGAAGAGCACACGU
B12: target 2 MT 5'PFS UCG 3'PFS CGG (mixed)
RNA 1: CACCCGUGCAAAAUUGCAGGGGUCUAAAACCUUCUCCAAAUUGUUUCAUCCU
RNA 2: GGGAAUGGAUCCACAUCUACGAAUUCUCGAGGAUGAAACAAUUUGGAGAAGCGGAGAUCGGAAGAGCACACGU
B13: target 2 MT 5'PFS GUU 3'PFS CGC (mixed)
RNA 1: CACCCGUGCAAAAUUGCAGGGGUCUAAAACCUUCUCCAAAUUGUUUCAUCCU
RNA 2: GGGAAUGGAUCCACAUCUACGAAUUCGUUAGGAUGAAACAAUUUGGAGAAGCGCAGAUCGGAAGAGCACACGU
B14: target 2 MT 5'PFS UCG 3'PFS CGA (mixed)
RNA 1: CACCCGUGCAAAAUUGCAGGGGUCUAAAACCUUCUCCAAAUUGUUUCAUCCU
RNA 2: GGGAAUGGAUCCACAUCUACGAAUUCUCGAGGAUGAAACAAUUUGGAGAAGCGAAGAUCGGAAGAGCACACGU
B15: target 2 MT 5'PFS AAA 3'PFS ACU (mixed)
RNA 1: CACCCGUGCAAAAUUGCAGGGGUCUAAAACCUUCUCCAAAUUGUUUCAUCCU
RNA 2: GGGAAUGGAUCCACAUCUACGAAUUCAAAAGGAUGAAACAAUUUGGAGAAGACUAGAUCGGAAGAGCACACGU
B16: target 2 MT 5'PFS AUU 3'PFS CCA (mixed)
RNA 1: CACCCGUGCAAAAUUGCAGGGGUCUAAAACCUUCUCCAAAUUGUUUCAUCCU
RNA 2: GGGAAUGGAUCCACAUCUACGAAUUCAUUAGGAUGAAACAAUUUGGAGAAGCCAAGAUCGGAAGAGCACACGU
B17: target 2 MT 5'PFS AAC 3'PFS AAC (mixed)
RNA 1: CACCCGUGCAAAAUUGCAGGGGUCUAAAACCUUCUCCAAAUUGUUUCAUCCU
RNA 2: GGGAAUGGAUCCACAUCUACGAAUUCAACAGGAUGAAACAAUUUGGAGAAGAACAGAUCGGAAGAGCACACGU
B18: target 2 MT 5'PFS GGC 3'PFS UAU (mixed)
RNA 1: CACCCGUGCAAAAUUGCAGGGGUCUAAAACCUUCUCCAAAUUGUUUCAUCCU
RNA 2: GGGAAUGGAUCCACAUCUACGAAUUCGGCAGGAUGAAACAAUUUGGAGAAGUAUAGAUCGGAAGAGCACACGU
B19: target 2 MT 5'PFS AUC 3'PFS AUG (mixed)
RNA 1: CACCCGUGCAAAAUUGCAGGGGUCUAAAACCUUCUCCAAAUUGUUUCAUCCU
RNA 2: GGGAAUGGAUCCACAUCUACGAAUUCAUCAGGAUGAAACAAUUUGGAGAAGAUGAGAUCGGAAGAGCACACGU
B20: target 2 MT 5'PFS UAC 3'PFS CAC (mixed)
RNA 1: CACCCGUGCAAAAUUGCAGGGGUCUAAAACCUUCUCCAAAUUGUUUCAUCCU
RNA 2: GGGAAUGGAUCCACAUCUACGAAUUCUACAGGAUGAAACAAUUUGGAGAAGCACAGAUCGGAAGAGCACACGU
B21: target 2 MT 5'PFS AUU 3'PFS CCG (mixed)
RNA 1: CACCCGUGCAAAAUUGCAGGGGUCUAAAACCUUCUCCAAAUUGUUUCAUCCU
RNA 2: GGGAAUGGAUCCACAUCUACGAAUUCAUUAGGAUGAAACAAUUUGGAGAAGCCGAGAUCGGAAGAGCACACGU
B22: target 2 MT 5'PFS UAC 3'PFS ACG (mixed)
RNA 1: CACCCGUGCAAAAUUGCAGGGGUCUAAAACCUUCUCCAAAUUGUUUCAUCCU
RNA 2: GGGAAUGGAUCCACAUCUACGAAUUCUACAGGAUGAAACAAUUUGGAGAAGACGAGAUCGGAAGAGCACACGU
B23: target 2 MT 5'PFS AAC 3'PFS CUC (mixed)
RNA 1: CACCCGUGCAAAAUUGCAGGGGUCUAAAACCUUCUCCAAAUUGUUUCAUCCU
RNA 2: GGGAAUGGAUCCACAUCUACGAAUUCAACAGGAUGAAACAAUUUGGAGAAGCUCAGAUCGGAAGAGCACACGU
B24: target 1 insA 3' of 12,insA 3' of 4 (mixed)
RNA 1: CACCCGUGCAAAAAUGCAGGGGUCUAAAACUGAGCGGAUAACCUCUCUAUGG
RNA 2: GGGAAUGGAUCCACAUCUACGAAUUCGUACCAUAGAGAGGAUUAUCCGCAUCACCGAGAUCGGAAGAGCACACGU
B25: target 1 G12C,G15A (mixed)
RNA 1: CACCCGUGCAAAAAUGCAGGGGUCUAAAACUGAGCGGAUAACCUCUCUAUGG
RNA 2: GGGAAUGGAUCCACAUCUACGAAUUCGUACCAUAGAAAGCUUAUCCGCUCACCGAGAUCGGAAGAGCACACGU
B26: target 1 C2A,C21U (mixed)
RNA 1: CACCCGUGCAAAAAUGCAGGGGUCUAAAACUGAGCGGAUAACCUCUCUAUGG
RNA 2: GGGAAUGGAUCCACAUCUACGAAUUCGUACUAUAGAGAGGUUAUCCGCUAACCGAGAUCGGAAGAGCACACGU
B27: target 1 insA 3' of 12,insC 3' of 3 (mixed)
RNA 1: CACCCGUGCAAAAAUGCAGGGGUCUAAAACUGAGCGGAUAACCUCUCUAUGG
RNA 2: GGGAAUGGAUCCACAUCUACGAAUUCGUACCAUAGAGAGGAUUAUCCGCUCCACCGAGAUCGGAAGAGCACACGU

This data set has as its target T1, EsCas13d, nuclease-dead (Eubacterium siraeum, UniProt B0MS50, R295A;H300A;R849A;H854A).
T1 sequence: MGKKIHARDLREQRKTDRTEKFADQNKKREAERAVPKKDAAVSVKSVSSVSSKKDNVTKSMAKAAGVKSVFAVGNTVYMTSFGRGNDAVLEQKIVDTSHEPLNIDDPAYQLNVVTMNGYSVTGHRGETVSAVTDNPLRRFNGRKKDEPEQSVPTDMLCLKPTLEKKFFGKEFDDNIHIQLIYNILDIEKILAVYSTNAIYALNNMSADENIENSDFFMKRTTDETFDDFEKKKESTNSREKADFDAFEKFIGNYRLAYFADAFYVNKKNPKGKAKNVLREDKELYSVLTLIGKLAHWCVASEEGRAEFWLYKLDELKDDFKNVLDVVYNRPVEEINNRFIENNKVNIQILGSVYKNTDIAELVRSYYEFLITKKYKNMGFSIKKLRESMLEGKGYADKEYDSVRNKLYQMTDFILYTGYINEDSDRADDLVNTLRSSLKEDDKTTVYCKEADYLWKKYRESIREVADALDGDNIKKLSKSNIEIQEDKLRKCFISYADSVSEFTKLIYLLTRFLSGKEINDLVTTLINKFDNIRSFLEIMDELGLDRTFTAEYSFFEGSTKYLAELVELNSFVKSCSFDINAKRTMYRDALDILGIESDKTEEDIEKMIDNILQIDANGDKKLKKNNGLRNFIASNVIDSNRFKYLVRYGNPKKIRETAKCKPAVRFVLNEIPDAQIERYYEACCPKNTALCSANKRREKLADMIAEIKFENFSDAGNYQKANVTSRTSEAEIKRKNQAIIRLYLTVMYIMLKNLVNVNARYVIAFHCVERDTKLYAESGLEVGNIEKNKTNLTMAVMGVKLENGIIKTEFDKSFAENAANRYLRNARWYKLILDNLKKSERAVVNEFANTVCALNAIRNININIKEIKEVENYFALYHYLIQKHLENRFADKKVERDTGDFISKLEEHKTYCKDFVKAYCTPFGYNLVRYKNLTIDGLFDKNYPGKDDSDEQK
Nature of the data set: crRNA (strand 1, pre-loaded); Mg2+; 40 mM Tris-HCl pH 7.5, 150 mM NaCl, 6 mM MgCl2, 1 mM DTT, 0.1% Tween-20, 0.2 mg/ml BSA; 25 C; 10 min per concentration, then washed. The note with it: tags: His6-TwinStrep-SUMO cleaved; N-terminal SNAP kept (SNAP-Surface 488); label: 3' end held by stalled T7 RNA polymerase.
For the molecule B1, the affinity, expressed as Kd, was 6 ± 1.1 nM.
The value for B2 was 4.4 ± 0.5 nM.
The result for B3 reads 17 ± 1.6 nM.
The value for B4 was 7.3 ± 1.3 nM.
Consider B5, for which binding was characterised by a dissociation constant (Kd) of 12.9 ± 0.9 nM.
The value for B6 was 10 ± 2.3 nM; that for B7 was 30 ± 6 nM; that for B8 was 4.9 ± 1.2 nM.
The value for B9 was 15.2 ± 1.5 nM; that for B10 was 5.7 ± 0.8 nM; that for B11 was 9.8 ± 2.1 nM.
The value for B12 was 55 ± 16 nM; that for B13 was 11.4 ± 0.7 nM; that for B14 was 33 ± 15 nM.
With B15, the dissociation constant Kd – broadly, the constant that tells how readily two partners part at equilibrium – was determined as 9.5 ± 2.9 nM.
The result for B16 reads 14.8 ± 2.7 nM.
The value for B17 was 8.8 ± 3.5 nM.
For the molecule B18, the Kd came out at 12.4 ± 1.5 nM.
The value for B19 was approximately 70 nM.
The value for B20 was 5.3 ± 1 nM.
B21 returned a Kd of 9.8 ± 1.1 nM.
The result for B22 reads 5.6 ± 1.3 nM; that for B23, 9 ± 3 nM; that for B24, 19.2 ± 1.2 nM.
The value for B25 was 50 ± 16 nM; that for B26 was 8.2 ± 0.5 nM; that for B27 was 26.6 ± 3 nM.
